Test results: article PMC13036776, “Structural and Kinetic Basis for the Rational Design of Next-Generation β‑Lactamase Inhibitors” (Journal of Medicinal Chemistry, 2026)

Tested on: O=C(Cc1cccs1)N[C@@H]1C(=O)N2C(C(=O)O)=C(/C=C/c3ccc([N+](=O)[O-])cc3[N+](=O)[O-])CS[C@H]12
Test: purified protein
Assay type: biochemical, Pseudomonas aeruginosa
Conditions: active site, catalytic S64 acylation (acyl-enzyme), pH 7.2

Row | Substance | Km (general base K67, R349 anchor) | Vmax (general base K67, R349 anchor) | kcat (general base K67, R349 anchor) | kcat/Km (general base K67, R349 anchor) | Km (general base K67) | Vmax (general base K67) | kcat (general base K67) | kcat/Km (general base K67)
1 | PDC-3 (Pseudomonas-derived cephalosporinase-3, class C β-lactamase AmpC) (Pseudomonas aeruginosa PAO1) | 28 ± 1 µM | 82.2 µM/min | 152 ± 15 s⁻¹ | 5.4e+06 ± 500000 M⁻¹ s⁻¹ |  |  |  | 
2 | PDC-3 (Pseudomonas-derived cephalosporinase-3, class C β-lactamase AmpC) (Pseudomonas aeruginosa PAO1; R376A/T105A) |  |  |  |  | 10.1 ± 1.5 µM | 55.8 µM/min | 85 ± 3 s⁻¹ | 8.4e+06 ± 1.3e+06 M⁻¹ s⁻¹
